Consider two proteins from publication PMC8694623 (Science Advances, 2021).

Data set [1] concerns the molecule itself. The data set is described as follows: cryo-EM structure.
Data set [2] deals with the molecule itself. As to the kind of experiment: negative-stain EM.

B1: S. cerevisiae Atm1-Strep (ABC transporter of mitochondria 1), wild type (natural protein, UniProt P40416 92-690, looked up)
chain: LKDLFRYIWPKGNNKVRIRVLIALGLLISAKILNVQVPFFFKQTIDSMNIAWDDPTVALPAAIGLTILCYGVARFGSVLFGELRNAVFAKVAQNAIRTVSLQTFQHLMKLDLGWHLSRQTGGLTRAMDRGTKGISQVLTAMVFHIIPISFEISVVCGILTYQFGASFAAITFSTMLLYSIFTIKTTAWRTHFRRDANKADNKAASVALDSLINFEAVKYFNNEKYLADKYNGSLMNYRDSQIKVSQSLAFLNSGQNLIFTTALTAMMYMGCTGVIGGNLTVGDLVLINQLVFQLSVPLNFLGSVYRDLKQSLIDMETLFKLRKNEVKIKNAERPLMLPENVPYDITFENVTFGYHPDRKILKNASFTIPAGWKTAIVGSSGSGKSTILKLVFRFYDPESGRILINGRDIKEYDIDALRKVIGVVPQDTPLFNDTIWENVKFGRIDATDEEVITVVEKAQLAPLIKKLPQGFDTIVGERGLMISGGEKQRLAIARVLLKNARIMFFDEATSALDTHTEQALLRTIRDNFTSGSRTSVYIAHRLRTIADADKIIVLDNGRVREEGKHLELLAMPGSLYRELWTIQEDLDHLENELKDQQEL
Regarding B1, in data set [1], the binding result is “binds”.

B2: Atm1-L657 truncation mutant (residues 92 to 656), C-terminally Strep-tagged (domain or fragment, S. cerevisiae, UniProt P40416 92-656, looked up)
chain: LKDLFRYIWPKGNNKVRIRVLIALGLLISAKILNVQVPFFFKQTIDSMNIAWDDPTVALPAAIGLTILCYGVARFGSVLFGELRNAVFAKVAQNAIRTVSLQTFQHLMKLDLGWHLSRQTGGLTRAMDRGTKGISQVLTAMVFHIIPISFEISVVCGILTYQFGASFAAITFSTMLLYSIFTIKTTAWRTHFRRDANKADNKAASVALDSLINFEAVKYFNNEKYLADKYNGSLMNYRDSQIKVSQSLAFLNSGQNLIFTTALTAMMYMGCTGVIGGNLTVGDLVLINQLVFQLSVPLNFLGSVYRDLKQSLIDMETLFKLRKNEVKIKNAERPLMLPENVPYDITFENVTFGYHPDRKILKNASFTIPAGWKTAIVGSSGSGKSTILKLVFRFYDPESGRILINGRDIKEYDIDALRKVIGVVPQDTPLFNDTIWENVKFGRIDATDEEVITVVEKAQLAPLIKKLPQGFDTIVGERGLMISGGEKQRLAIARVLLKNARIMFFDEATSALDTHTEQALLRTIRDNFTSGSRTSVYIAHRLRTIADADKIIVLDNGRVREEGKH
Turning to B2, the binding result in data set [2] is recorded as “binds”.
